The assay concerns the target T1, Epithelial cell adhesion molecule (EpCAM, CD326) (human, UniProt P16422 24-314).
T1 construct: whole, on cells; Endogenous EpCAM on carcinoma cell lines; also called EpCAM antigen
T1 sequence (looked up): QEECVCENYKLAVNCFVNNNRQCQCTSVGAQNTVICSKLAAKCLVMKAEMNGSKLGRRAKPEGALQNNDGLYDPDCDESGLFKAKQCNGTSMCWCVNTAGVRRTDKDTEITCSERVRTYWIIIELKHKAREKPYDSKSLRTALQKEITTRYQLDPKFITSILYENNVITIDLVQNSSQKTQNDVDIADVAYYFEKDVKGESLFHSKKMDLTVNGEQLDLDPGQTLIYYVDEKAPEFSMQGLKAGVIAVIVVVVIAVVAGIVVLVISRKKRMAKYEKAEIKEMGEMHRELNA
In words: binding to EpCAM-expressing cells; method not stated.

B1: chimeric antibody huHEA125 (antibody, human IgG1, kappa)
heavy: not shown
light: DILLTQSPAILSVSPGERVSFSCRASQSIGISLHWYQQRPSDSPRLLIKYASESISGIPSRFSGSGSGTDFTLSINSVESEDIADYYCQQSNIWPTTFGAGTKLELKRTVAAPSVFIFPPSDEQLKSGTASVVCLLNNFYPREAKVQWKVDNALQSGNSQESVTEQDSKDSTYSLSSTLTLSKADYEKHKVYACEVTHQGLSSPVTKSFNRGEC
notes: Mouse HEA125 variable domains on human kappa and human IgG1 constant regions; also called unmodified huHEA125 antibody; non-conjugated huHEA125 antibody
Consider B1, for which the Kd stood at 2.2 nM.

The values above are taken from US20120100161A1 (DEUTSCHES KREBSFORSCHUNGSZENTRUM, published 2012).
